The values below come from publication PMC10053325.

Where only a bound is given, the exact number is not on record here.

The target in one test is T1, His-SMAD4^R361H, Q13485.
T1 chain: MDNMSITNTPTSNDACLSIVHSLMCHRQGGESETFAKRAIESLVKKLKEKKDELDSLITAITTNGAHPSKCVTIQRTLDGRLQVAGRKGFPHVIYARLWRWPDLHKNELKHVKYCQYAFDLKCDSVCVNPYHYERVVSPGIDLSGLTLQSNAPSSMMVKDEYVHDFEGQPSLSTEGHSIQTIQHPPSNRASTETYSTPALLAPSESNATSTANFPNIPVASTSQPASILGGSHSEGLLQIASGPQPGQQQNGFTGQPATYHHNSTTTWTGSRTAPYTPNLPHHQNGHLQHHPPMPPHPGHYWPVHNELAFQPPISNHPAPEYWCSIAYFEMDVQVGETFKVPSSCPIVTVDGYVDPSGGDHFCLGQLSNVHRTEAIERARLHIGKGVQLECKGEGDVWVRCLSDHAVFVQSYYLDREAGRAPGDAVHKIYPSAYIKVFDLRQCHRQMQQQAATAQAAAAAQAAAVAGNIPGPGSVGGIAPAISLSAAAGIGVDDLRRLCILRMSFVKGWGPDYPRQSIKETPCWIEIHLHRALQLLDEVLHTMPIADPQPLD
Nature of the test: AlphaScreen or HTRF. The following applies: remark: other sources report otherwise.

For another test, the target named is T2, His-SMAD4^WT, Q13485.
T2 chain: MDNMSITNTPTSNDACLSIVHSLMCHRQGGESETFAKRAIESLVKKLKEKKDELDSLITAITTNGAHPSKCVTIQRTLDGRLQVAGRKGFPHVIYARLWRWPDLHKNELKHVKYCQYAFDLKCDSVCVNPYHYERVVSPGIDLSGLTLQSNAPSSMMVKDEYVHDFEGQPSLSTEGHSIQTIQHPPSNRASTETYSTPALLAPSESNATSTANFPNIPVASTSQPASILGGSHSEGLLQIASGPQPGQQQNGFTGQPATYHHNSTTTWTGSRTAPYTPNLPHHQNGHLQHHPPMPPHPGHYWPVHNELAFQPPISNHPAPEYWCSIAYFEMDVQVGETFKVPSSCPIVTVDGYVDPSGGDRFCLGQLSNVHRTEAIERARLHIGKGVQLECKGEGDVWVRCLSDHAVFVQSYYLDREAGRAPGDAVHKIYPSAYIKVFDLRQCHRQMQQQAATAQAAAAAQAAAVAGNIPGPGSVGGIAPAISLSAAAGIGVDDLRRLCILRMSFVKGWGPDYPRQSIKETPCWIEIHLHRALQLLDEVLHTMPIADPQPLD
The experiment in a line: AlphaScreen or HTRF. The following applies: remark: other sources report otherwise.

B1: Flag-SMAD3, P84022 1-425 (natural protein)
chain: MSSILPFTPPIVKRLLGWKKGEQNGQEEKWCEKAVKSLVKKLKKTGQLDELEKAITTQNVNTKCITIPRSLDGRLQVSHRKGLPHVIYCRLWRWPDLHSHHELRAMELCEFAFNMKKDEVCVNPYHYQRVETPVLPPVLVPRHTEIPAEFPPLDDYSHSIPENTNFPAGIEPQSNIPETPPPGYLSEDGETSDHQMNHSMDAGSPNLSPNPMSPAHNNLDLQPVTYCEPAFWCSISYYELNQRVGETFHASQPSMTVDGFTDPSNSERFCLGLLSNVNRNAAVELTRRHIGRGVRLYYIGGEVFAECLSDSAIFVQSPNCNQRYGWHPATVCKIPPGCNLKIFNNQEFAALLAQSVNQGFEAVYQLTRMCTIRMSFVKGWGAEYRRQTVTSTPCWIELHLNGPLQWLDKVLTQMGSPSIRCSSVS
In the case of B1, in the test with His-SMAD4^R361H, Q13485, the EC50 of Go-6983 in enhancing the PPI was 15.2 µM, the EC50 of PKC-412 in enhancing the PPI is greater than 100 µM, the EC50 of Ro-31-8220 in enhancing the PPI stood at 3.9 µM and the EC50 of UCN-1028c in enhancing the PPI was greater than 100 µM. Besides, in the test with His-SMAD4^R361H, Q13485, the signal-to-background ratio (TR-FRET) is 10 fold. For the same molecule, in the test with His-SMAD4^WT, Q13485, the signal-to-background ratio (TR-FRET) stood at 30 fold.
